How the values were obtained:
[1] = molecular target: Tie1 (Homo sapiens, UniProt P35590); test: Tie1 phosphorylation assay in HDMVECs; assay type: cell-based
Method: COS1 cells were transfected with pcDNA3-Tie1-V5. After 24 h of transfection, the cells were serum starved for 8 h and then treated with E3 IgG. For the Tie1 phosphorylation assay, HDMVECs were cultured on 10 cm dishes to near confluence, starved (8-16 h) in serum free medium and stimulated as indicated. After the stimulations, the cells were lysed in lysis buffer (RIPA-DOC: 50 mM Tris-HCl pH 8.0, 150 mM NaCl, 1% Triton-X-100, 0.1% SDS, 0.5% DOC, 10 mM EDTA, supplemented with aprotinin, leupeptin, PMSF and sodium vanadate). Clarified lysates from transfected COS1 cells or HDMVECs were immunoprecipitated with anti-V5 or anti-Tie1 B9, respectively. Proteins were separated by SDS-PAGE, transferred to nitrocellulose and immunoblotted using the anti-phosphotyrosine and anti-Tie1 (R&D systems) antibodies.
To test if the E3 IgG binding to the extracellular region of Tie1 induces autophosphorylation of Tie1, the Tie1 receptor phosphorylation level in response to E3 IgG treatment was studied in transiently transfected COS1 cells and human primary endothelial cells. COS1 cells were transfected with an expression vector containing a V5-tagged full length Tie1 cDNA, and, after serum starvation, the cells were treated with E3 IgG (200 ng/ml). Cell lysates were extracted at several time points and Tie1 was immunoprecipitated with anti-V5 followed by western blotting using anti-phosphotyrosine and anti-Tie1 antibodies. […] To determine if E3 IgG induces Tie1 phosphorylation in primary endothelial cells, HDMVEC cells were serum starved and stimulated with several concentrations of E3 for 60 min. […] Also higher concentrations of E3 (500-1000 ng/ml) induced Tie1 phosphorylation but the response was more rapid and was most prominent after 5 min of stimulation.
To study the kinetics of E3 IgG induced Tie1 activation, cells were stimulated with E3 IgG (200 ng/ml) and receptor phosphorylation was studied at various time points. Tie1 phosphorylation was highest 15-30 min after E3 IgG treatment but phosphorylation persisted for up to 1 h.

[2] = molecular target: T1, Mouse Tie 1-Fc (Mus musculus, UniProt Q06806); test: BIAcore, coated E3 IgGs with recombinant mouse Tie-1 Fc; assay type: binding; details: IgG, mouse Tie1-Fc
T1 sequence (Q06806 23-755 limits assumed): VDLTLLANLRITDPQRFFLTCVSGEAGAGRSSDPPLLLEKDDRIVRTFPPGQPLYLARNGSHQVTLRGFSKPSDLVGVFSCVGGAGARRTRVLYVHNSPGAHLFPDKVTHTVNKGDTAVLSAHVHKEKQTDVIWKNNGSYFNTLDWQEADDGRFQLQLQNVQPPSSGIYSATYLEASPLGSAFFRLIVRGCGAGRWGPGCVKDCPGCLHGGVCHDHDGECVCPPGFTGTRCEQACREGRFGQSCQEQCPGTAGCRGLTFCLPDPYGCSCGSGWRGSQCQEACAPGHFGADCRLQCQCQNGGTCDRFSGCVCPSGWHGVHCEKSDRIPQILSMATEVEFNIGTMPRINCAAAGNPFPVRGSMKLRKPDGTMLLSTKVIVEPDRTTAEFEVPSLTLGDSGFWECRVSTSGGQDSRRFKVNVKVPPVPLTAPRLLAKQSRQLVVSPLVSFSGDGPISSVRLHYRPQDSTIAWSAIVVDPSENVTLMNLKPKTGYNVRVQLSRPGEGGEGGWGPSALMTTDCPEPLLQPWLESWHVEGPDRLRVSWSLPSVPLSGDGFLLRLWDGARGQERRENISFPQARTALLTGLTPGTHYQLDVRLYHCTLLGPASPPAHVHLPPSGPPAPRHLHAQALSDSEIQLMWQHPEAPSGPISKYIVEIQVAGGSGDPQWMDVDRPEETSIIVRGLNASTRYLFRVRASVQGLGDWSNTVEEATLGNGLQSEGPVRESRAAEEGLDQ
Method: In order to evaluate if the binding behavior had been affected in any way by the conversion of the somatic mutations back to germline, the germlined antibody was produced and tested as a IgG. The germlined E3 was reformatted to an IgG as described. This was then used to transiently transfect HEK293T cells using established procedures. The IgG was purified from the culture supernatant using protein A column chromatography using established procedures and the subsequent IgG was then tested for binding activity using surface plasmon resonance (BIAcore). The germlined E3 IgG1 stock solution 0.63 mg/ml (2146-002) was diluted 1/50 in a buffer of pH 4.5 and the parental E3 IgG1 stock solution 0.56 mg/ml (2143-001) was diluted 1/50 in a buffer of pH 4.5. The IgG were directly coated via onto a CM5 chip. The surface of the chips was activated with a 7 minute pulse of 0.05M NHS/0.2M EDC and the IgG was flowed over until 780RU germlined E3-IgG and 728 non germlined E3 IgG was coated onto the surface. All flow cells were subsequently deactivated with a 7 minute pulse of 1M ethanolamine hydrochloride pH8.5. All analysis was performed in HBS buffer. […] All samples were run and analyzed in duplicate
Sensorgrams were analyzed using the simultaneous ka/kd fitting program with 1:1 model in the BIAEVALUATION™ software 3.1.

Tie1, sequence (P35590 22-1138): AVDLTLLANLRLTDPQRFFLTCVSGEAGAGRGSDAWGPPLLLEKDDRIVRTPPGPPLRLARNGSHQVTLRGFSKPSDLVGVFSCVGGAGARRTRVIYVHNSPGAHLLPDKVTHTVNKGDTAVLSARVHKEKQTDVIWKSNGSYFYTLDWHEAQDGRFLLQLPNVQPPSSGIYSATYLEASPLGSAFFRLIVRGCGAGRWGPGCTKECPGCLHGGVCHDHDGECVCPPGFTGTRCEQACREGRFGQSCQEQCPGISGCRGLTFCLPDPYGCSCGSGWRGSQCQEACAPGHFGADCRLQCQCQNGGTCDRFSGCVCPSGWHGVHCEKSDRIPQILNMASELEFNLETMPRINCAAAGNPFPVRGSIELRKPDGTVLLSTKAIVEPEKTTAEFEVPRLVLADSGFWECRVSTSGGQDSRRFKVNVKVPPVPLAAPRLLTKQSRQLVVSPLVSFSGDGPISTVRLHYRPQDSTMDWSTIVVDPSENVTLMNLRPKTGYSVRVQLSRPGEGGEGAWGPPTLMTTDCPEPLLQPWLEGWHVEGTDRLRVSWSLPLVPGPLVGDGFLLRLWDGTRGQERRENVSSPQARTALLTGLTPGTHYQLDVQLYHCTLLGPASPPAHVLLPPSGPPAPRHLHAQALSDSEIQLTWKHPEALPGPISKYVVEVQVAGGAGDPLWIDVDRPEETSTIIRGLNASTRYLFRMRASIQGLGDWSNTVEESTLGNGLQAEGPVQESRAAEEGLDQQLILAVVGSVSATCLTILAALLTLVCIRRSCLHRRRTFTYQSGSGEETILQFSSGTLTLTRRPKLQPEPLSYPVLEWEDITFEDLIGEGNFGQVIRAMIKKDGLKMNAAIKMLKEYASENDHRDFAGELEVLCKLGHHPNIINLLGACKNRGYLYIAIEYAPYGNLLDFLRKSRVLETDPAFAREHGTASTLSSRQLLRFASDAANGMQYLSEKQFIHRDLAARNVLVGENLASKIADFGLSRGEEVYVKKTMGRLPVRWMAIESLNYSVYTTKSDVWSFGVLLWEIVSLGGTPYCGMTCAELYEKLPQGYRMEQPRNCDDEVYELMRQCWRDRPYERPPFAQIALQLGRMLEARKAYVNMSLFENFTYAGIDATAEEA

B1: E3: human anti-Tie1 antibody from Fab phage library; HC SEQ ID NO:114, LC SEQ ID NO:116 (antibody, V domains shown)
VH: EVQLLESGGGLVQPGGSLRLSCAASGFTFSMYGMVWVRQAPGKGLEWVSVISPSGGNTGYADSVKGRFTISRDNSKNTLYLQVNSLRAEDTAVYYCARAPRGYSYGYYYWGQGTLVTVSSASTKGPSVFPLAPSSKSTSGG
VL: DIQMTQSPLSLSASVGDRVTITCRASQGIGHYLAWYQQKPGKVPKLLIYTASTLQSGVPSRFSGSGSGTDFTLTINSLQPEDVATYYCQQFNSYPHTFGQGTRLDIK
modifications: Synthetically generated peptide
Q: How did the “persistence of Tie1 phosphorylation” value ([1]; E3 IgG 200 ng/ml) turn out when B1 was run?
A: up to 1 h

Q: And the “time of highest Tie1 phosphorylation” value ([1]; E3 IgG 200 ng/ml)?
A: 15 to 30 min

Q: What about the “time of most prominent Tie1 phosphorylation” value ([1]; HDMVEC, E3 500-1000 ng/ml) of the same molecule?
A: 5 min

Q: What about the “concentration showing Tie1 receptor phosphorylation” value ([1]; HDMVEC, serum starved, stimulated 60 min) of the same molecule?
A: 50 to 200 ng/mL

Q: And the “higher concentrations inducing Tie1 phosphorylation” value ([1]; HDMVEC, response more rapid)?
A: 500 to 1000 ng/mL

Q: What about the “effect of germlining on binding activity” value [2] of the same molecule?
A: minimal impact on the binding activity

Source: patent publication US7871610B2, “Antibodies to Tie1 ectodomain” (Dyax Corp., priority 2003, dated 2011)
